Reference: patent US20220040297A1 (Chugai, published 2022)
Where a chain is given by its changes, count along the chain named. In names and notes the source's numbering stands. Ends that are not written are not given here.

Key:
[1] = biological target: T1, biotin-labeled human CD154 (human, UniProt P29965 113-261, limits assumed, biotin-labeled); experiment: ECL competition: biotinylated CD154, CD3ε homodimer as competitor [2]
T1 construct: also called biotinylated human CD154
T1 sequence (looked up): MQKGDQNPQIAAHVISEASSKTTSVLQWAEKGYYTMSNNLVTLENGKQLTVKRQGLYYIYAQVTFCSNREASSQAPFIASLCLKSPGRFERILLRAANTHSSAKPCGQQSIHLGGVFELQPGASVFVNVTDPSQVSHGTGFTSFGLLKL

CD3ε homodimer protein = biological target: T2, CD3ε homodimer protein (human, UniProt P07766 23-126, limits assumed); experiment: SPR (Biacore); CD3ε homodimer immobilized, one-arm antibody as analyte
T2 construct: also called human CD3ε homodimer protein; CD3e homodimer

[2] = biological target: T1, biotin-labeled human CD154; experiment: ECL competition: biotinylated CD154, CD3ε homodimer as competitor [1]
[3] = biological target: T3, human IgA-Fc with AviTag, biotinylated (human, UniProt P01876 123-333, limits assumed, biotinylated at the C-terminal AviTag sequence); experiment: ECL; hIgA value without against with integrin αvβ3 (competitor)
T3 construct: also called hIgA; biotinylated human IgA

[4] = biological target: T4, integrin αvβ3 (R&D Systems, Inc.) (human, UniProt P06756 31-992; P05106 27-718); experiment: ECL; integrin αvβ3 value without against with CD3ε homodimer protein (competitor)
[5] = biological target: T3, human IgA-Fc with AviTag, biotinylated; experiment: ECL; hIgA signal without against with CD3ε homodimer protein (competitor)
[6] = biological target: T4, integrin αvβ3 (R&D Systems, Inc.); experiment: ECL; integrin αvβ3 on plate, ratio to the integrin-free well
[7] = biological target: T3, human IgA-Fc with AviTag, biotinylated; experiment: ECL; biotinylated hIgA, ratio to the no-antigen well
[8] = biological target: T3, human IgA-Fc with AviTag, biotinylated; experiment: ECL; biotinylated hIgA with integrin αvβ3 (competitor), ratio to the no-antigen well
[9] = biological target: T3, human IgA-Fc with AviTag, biotinylated; experiment: ECL; biotinylated hIgA, ratio to the no-antigen well; remark: listed apart in the source
[10] = biological target: T3, human IgA-Fc with AviTag, biotinylated; experiment: ECL; biotinylated hIgA with CD3ε homodimer protein (competitor), ratio to the no-antigen well
[11] = biological target: T4, integrin αvβ3 (R&D Systems, Inc.); experiment: ECL; integrin αvβ3 on plate with CD3ε homodimer protein (competitor), ratio to the integrin-free well
[12] = biological target: T5, biotin-labeled CD3ε peptide (also: biotin-labeled, site not given here); experiment: ECL; CD3 peptide as antigen, ratio to the no-antigen well
T5 construct: also called CD3 peptide; biotinylated CD3ε peptide
T5 peptide: QDGNEEMGGITQTPY

B1: 154R5A02#1 (antibody, human IgG1, kappa, L234A L235A, N297A)
heavy: QVQLVESGGGLVQPGRSLRLSCAASGFTFSNAWMHWVRQAPGKGLEWVAQIKDRGNNYNTYYAPSVKGRFTISRDDSKNSIYLQMNSLKTEDTAVYYCRYVHYGSYFFSGSSFGVDIWGQGTTVTVSSASTKGPSVFPLAPSSKSTSGGTAALGCLVKDYFPEPVTVSWNSGALTSGVHTFPAVLQSSGLYSLSSVVTVPSSSLGTQTYICNVNHKPSNTKVDKKVEPKSCDKTHTCPPCPAPEAAGGPSVFLFPPKPKDTLMISRTPEVTCVVVDVSHEDPEVKFNWYVDGVEVHNAKTKPREEQYASTYRVVSVLTVLHQDWLNGKEYKCKVSNKALPAPIEKTISKAKGQPREPQVYTLPPSRCELTKNQVSLSCAVKGFYPSDIAVEWESNGQPENNYKTTPPVLDSDGSFFLVSKLTVDKSRWQQGNVFSCSVMHEALHNHYTQKSLSLSPDYKDDDDK
chain: EPKSSDKTHTCPPCPAPELLGGPSVFLFPPKPKDTLMISRTPEVTCVVVDVSHEDPEVKFNWYVDGVEVHNAKTKPREEQYNSTYRVVSVLTVLHQDWLNGKEYKCKVSNKALPAPIEKTISKAKGQPREPQVCTLPPSRDELTKNQVSLWCLVKGFYPSDIAVEWESNGQPENNYKTTPPVLDSDGSFFLYSKLTVDKSRWQQGNVFSCSVMHEALHNRYTQKSLSLSP
light: DIVMTQSPLSLPVTPGEPASISCRSSQSLVHSNRNTYLHWYQQKPGQAPRLLIYKVSNRFSGVPDRFSGSGSGTDFTLKISRVEAEDVGVYYCGQGTQVPYTFGQGTKLEIKRTVAAPSVFIFPPSDEQLKSGTASVVCLLNNFYPREAKVQWKVDNALQSGNSQESVTEQDSKDSTYSLSSTLTLSKADYEKHKVYACEVTHQGLSSPVTKSFNRGEC
notes: One-arm antibody
For B1, the “Relative ECL reaction (to no antigen coating), CD3ε[+]” value [1] was 10.

B2: CE115HA000 V11L/D72A/L78I/D101Q, no insertion (antibody, human IgG1, kappa, L234A L235A, N297A, name in Kabat numbering)
heavy: QVQLVESGGGLVQPGRSLRLSCAASGFTFSNAWMHWVRQAPGKGLEWVAQIKAKSNNYATYYAESVKGRFTISRADSKNSIYLQMNSLKTEDTAVYYCRYVHYGAYYGVQAWGQGTTVTVSSASTKGPSVFPLAPSSKSTSGGTAALGCLVKDYFPEPVTVSWNSGALTSGVHTFPAVLQSSGLYSLSSVVTVPSSSLGTQTYICNVNHKPSNTKVDKKVEPKSCDKTHTCPPCPAPEAAGGPSVFLFPPKPKDTLMISRTPEVTCVVVDVSHEDPEVKFNWYVDGVEVHNAKTKPREEQYASTYRVVSVLTVLHQDWLNGKEYKCKVSNKALPAPIEKTISKAKGQPREPQVYTLPPSRCELTKNQVSLSCAVKGFYPSDIAVEWESNGQPENNYKTTPPVLDSDGSFFLVSKLTVDKSRWQQGNVFSCSVMHEALHNHYTQKSLSLSPDYKDDDDK
chain: B1 chain
light: B1 light
A Kd (CD3ε homodimer protein) of 6.96 nM was found for B2 in this work.

B3: 154R4B03#1 (antibody, human IgG1, kappa, L234A L235A, N297A)
heavy: QVQLVESGGGLVQPGRSLRLSCAASGFTFSNAWMHWVRQAPGKGLEWVAQIKDKQSQYANYYAPSVKGRFTISRDDSKNSIYLQMNSLKTEDTAVYYCRYVHYQSTSYSFYQGGVDAWGQGTTVTVSSASTKGPSVFPLAPSSKSTSGGTAALGCLVKDYFPEPVTVSWNSGALTSGVHTFPAVLQSSGLYSLSSVVTVPSSSLGTQTYICNVNHKPSNTKVDKKVEPKSCDKTHTCPPCPAPEAAGGPSVFLFPPKPKDTLMISRTPEVTCVVVDVSHEDPEVKFNWYVDGVEVHNAKTKPREEQYASTYRVVSVLTVLHQDWLNGKEYKCKVSNKALPAPIEKTISKAKGQPREPQVYTLPPSRCELTKNQVSLSCAVKGFYPSDIAVEWESNGQPENNYKTTPPVLDSDGSFFLVSKLTVDKSRWQQGNVFSCSVMHEALHNHYTQKSLSLSPDYKDDDDK
chain: B1 chain
light: B1 light
notes: One-arm antibody
With B3 the “Relative ECL reaction (to no antigen coating), CD3ε[+]” value [2] was 18.

B4: CE115HA000 V11L/D72A/L78I/D101Q with GGS inserted between Kabat 99 and 100 (antibody)
heavy: QVQLVESGGGLVQPGRSLRLSCAASGFTFSNAWMHWVRQAPGKGLEWVAQIKAKSNNYATYYAESVKGRFTISRADSKNSIYLQMNSLKTEDTAVYYCRYVHYGAGGSYYGVQAWGQGTTVTVSSASTKGPSVFPLAPSSKSTSGGTAALGCLVKDYFPEPVTVSWNSGALTSGVHTFPAVLQSSGLYSLSSVVTVPSSSLGTQTYICNVNHKPSNTKVDKKVEPKSCDKTHTCPPCPAPEAAGGPSVFLFPPKPKDTLMISRTPEVTCVVVDVSHEDPEVKFNWYVDGVEVHNAKTKPREEQYASTYRVVSVLTVLHQDWLNGKEYKCKVSNKALPAPIEKTISKAKGQPREPQVYTLPPSRCELTKNQVSLSCAVKGFYPSDIAVEWESNGQPENNYKTTPPVLDSDGSFFLVSKLTVDKSRWQQGNVFSCSVMHEALHNHYTQKSLSLSPDYKDDDDK
Fc: B1 chain
light: B1 light
notes: one-arm antibody
A Kd (CD3ε homodimer protein) of 63.1 nM was found for B4 in this work.

B5: IGAR6(2)B02 (antibody, human IgG1, kappa, L234A L235A, N297A)
heavy: QVQLVESGGGLVQPGRSLRLSCAASGFTFSNAWMHWVRQAPGKGLEWVAQIKDKGQQYAAYYAPSVKGRFTISRDDSKNSIYLQMNSLKTEDTAVYYCRYVHYQTYSDGSFYFGVDAWGQGTTVTVSSASTKGPSVFPLAPSSKSTSGGTAALGCLVKDYFPEPVTVSWNSGALTSGVHTFPAVLQSSGLYSLSSVVTVPSSSLGTQTYICNVNHKPSNTKVDKKVEPKSCDKTHTCPPCPAPEAAGGPSVFLFPPKPKDTLMISRTPEVTCVVVDVSHEDPEVKFNWYVDGVEVHNAKTKPREEQYASTYRVVSVLTVLHQDWLNGKEYKCKVSNKALPAPIEKTISKAKGQPREPQVYTLPPSRCELTKNQVSLSCAVKGFYPSDIAVEWESNGQPENNYKTTPPVLDSDGSFFLVSKLTVDKSRWQQGNVFSCSVMHEALHNHYTQKSLSLSPDYKDDDDK
chain: B1 chain
light: B1 light
notes: One-arm antibody; also called IGA6 (2) B02; IGAR6(2)B02#1
With B5 the “Amount of binding to hIgA attenuated by integrin αvβ3” value [3] was 1 fold, the “Amount of binding to integrin αvβ3 attenuated by CD3” value [4] was 1 fold and the “Amount of binding to hIgA attenuated by CD3” value [5] was 23.4 fold. The “Value as compared with integrin αvβ3-free well” value [6] was 0.8 fold, the “Value as compared with antigen-free well” value [7] was 20 fold and the “Value as compared with antigen-free well” value [8] was 15.9 fold. The “Value as compared with antigen-free well” value [9] was 15.6 fold, the “Value as compared with antigen-free well” value [10] was 1 fold and the “Value as compared with integrin αvβ3-free well” value [11] was 0.8 fold. The “Value as compared with antigen-free well” value [12] was 910 fold.

B6: 154R4B03#4 (antibody, human IgG1, kappa, L234A L235A, N297A)
heavy: B3 heavy with N79S
chain: B1 chain
light: B1 light
notes: One-arm antibody
With B6 the “Relative ECL reaction (to no antigen coating), CD3ε[+]” value [2] was 20.

B7: CE115HA000 / GLS3000 one-arm antibody (antibody, human IgG1, kappa, L234A L235A, N297A)
heavy: B2 heavy with L11V, A75D, I81L, Q110D
chain: B1 chain
light: B1 light
notes: one-arm antibody
A Kd (CD3ε homodimer protein) of 110 nM was found for B7 in this work.

B8: 154R5F08#1 (antibody, human IgG1, kappa, L234A L235A, N297A)
heavy: B1 heavy with R54K, N57Q, N59A, P64E, S105T, S109A, G110L, S111P, S112A
chain: B1 chain
light: B1 light
notes: One-arm antibody
For B8, the “Relative ECL reaction (to no antigen coating), CD3ε[+]” value [1] was 13.

B9: 154R5E11#3 (antibody, human IgG1, kappa, L234A L235A, N297A)
heavy: B1 heavy with N59A, T60A, P64E, S109A, G110S, S111F, S112Y, T123A
chain: B1 chain
light: B1 light
notes: One-arm antibody
With B9 the “Relative ECL reaction (to no antigen coating), CD3ε[+]” value [1] was 1.

B10: 154R5A02#2 (antibody, human IgG1, kappa, L234A L235A, N297A)
heavy: B1 heavy with V101A
chain: B1 chain
light: B1 light
notes: One-arm antibody
In the case of B10, the “Relative ECL reaction (to no antigen coating), CD3ε[+]” value [1] is reported as 106.

B11: 154R5F08#3 (antibody, human IgG1, kappa, L234A L235A, N297A)
heavy: B1 heavy with R54K, N57Q, N59A, P64E, F70Y, S105T, S109A, G110L, S111P, S112A
chain: B1 chain
light: B1 light
notes: One-arm antibody
With B11 the “Relative ECL reaction (to no antigen coating), CD3ε[+]” value [1] was 10.
